Assay results taken from publication PMC9481538, “The interaction between LC8 and LCA5 reveals a novel oligomerization function of LC8 in the ciliary-centrosome system” (Scientific Reports, 2022).
Substitutions are numbered along the chain they refer to.

B1: sLCA5-WT: truncated LCA5 96–430 fused to an N-terminal MBP tag (protein)
chain: DTDLVTKRILSARLLKINELQNEVSELQVKLAELLKENKSLKRLQYRQEKALNKFEDAENEISQLIFRHNNEITALKERLRKSQEKERATEKRVKDTESELFRTKFSLQKLKEISEARHLPERDDLAKKLVSAELKLDDTERRIKELSKNLELSTNSFQRQLLAERKRAYEAHDENKVLQKEVQRLYHKLKEKERELDIKNIYSNRLPKSSPNKEKELALRKNAACQSDFADLCTKGVQTMEDFKPEEYPLTPETIMCYENKWEEPGHLTLDLQSQKQDRHGEAGILNPIMEREEKFVTDEELHVVKQEVEKLEDEWEREELDKKQKEKASLLER
modifications: left off: MBP, N-terminal, kept | His6, C-terminal, kept
notes: truncated LCA5 96–430 fused to an N-terminal MBP tag
B2: sLCA5-ΔCQS-ΔVQT: double mutant sLCA5, both LC8 binding motifs mutated (protein)
chain: B1 chain with C226A, Q227A, S228A, V238A, Q239A, T240A
modifications: left off: MBP, N-terminal, kept | His6, C-terminal, kept

Assays:
LC8 [1] = target: T1, LC8 (Homo sapiens, UniProt Q96FJ2); test: isothermal titration calorimetry, sLCA5 fragments titrated with LC8; type: binding; conditions: PBS pH 7.4, 1 mM TCEP, 37 °C
T1 construct: 6xHis (N); made in house; host or cells: E. coli BL21 (DE3) Rosetta
T1 sequence (Q96FJ2 whole entry, the tested form may be a part): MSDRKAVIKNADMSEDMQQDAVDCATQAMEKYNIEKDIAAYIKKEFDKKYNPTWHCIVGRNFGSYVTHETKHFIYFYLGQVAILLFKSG
Protocol: LC8 and MBP-fused LCA5 constructs were prepared in PBS supplemented with 1 mM TCEP. Before measurement, protein samples were dialyzed overnight in PBS pH 7.4 (Orange Scientific, OrDial D14 membrane). Peptides were diluted from stock with the buffer used for dialysis. The concentration of samples was determined based on absorbance at 280 nm in the case of proteins, and 205 nm for the peptide. Experiments were performed using MicroCal PEAQ-ITC (Malvern Panalytical), LCA5 peptides were measured at 25 °C, proteins were analyzed at 37 °C. Lebercilin peptide was injected into the cell 18 times 2 μl volumes, with 5 min timing between injections. In case of the protein, LCA5 was placed in the sample cell, and LC8 was injected during 37 injections, 1 μl each. The results were evaluated using MicroCal PEAQ-ITC Analysis Software.

GST-fused LC8 = test: GST pull-down of LC8 and sLCA5; type: binding; conditions: GST-LC8 bait, MBP-, 6x-His-fused sLCA5 prey, PBS, 1 mM DTT, room temperature; result in words
Protocol: For the pull-down experiments, GST-fused LC8 was used as bait, and MBP-, 6x-His-fused LCA5 variants as prey. For controls, GST and MBP were used. Proteins were expressed in 100 ml cultures of E. coli BL21 (DE3) Rosetta cells as described above. Cells were harvested, resuspended in 5 ml PBS supplemented with 1 mg/ml lysozyme and 1 mM DTT, sonicated and clarified by centrifugation. 20 μl of Glutathione Sepharose 4B (Macherey–Nagel) (75%) resin was used for each experiment. Baits were incubated with the resin for 1 h at room temperature, then washed with PBS supplemented with 1 mM DTT. Prey proteins were added and incubated for one hour. The beads were washed and eluted by boiling in a 2 × SDS sample buffer and analyzed in tricine SDS page according to the protocol of Schagger et al[43].

CD thermal denaturation = type: physicochemical; conditions: CD at 222 nm, 10–80 °C; for melting temperature Tm: 1 °C/min, two-state fit, without or with LC8 as label shows; for increase in melting temperature on LC8 binding: sLCA5 in complex with LC8 vs without
Protocol: (§1) CD experiments were carried out on a Jasco J-810 spectropolarimeter using a 1 mm quartz cuvette. For the spectra of the individual constructs, 8 scans were recorded and averaged between 200 nm or 190 nm and 260 nm (in continuous scanning mode, data pitch: 0.2 nm, scanning speed: 50 nm/min, response: 2 s, bandwidth: 2 nm). sLCA5-WT and the mutants were measured at 0.1 mg/ml concentration. 1.2 μM LCA5 and 6 μM LC8 were complexed and analyzed. The spectra of LC8 at a concentration of 6 μM was recorded under the same experimental conditions as described before and subtracted from the individual CD spectra of the sLCA5-LC8 complexes. The baseline subtracted data were evaluated using the BeStSel web-server (http://bestsel.elte.hu/index.php)[46],[47]. Thermal denaturation experiments were recorded at 222 nm between 10 and 80 °C using 1 °C/min heating rate. The thermal denaturation profile was fitted according to the Gibbs–Helmholtz equation assuming a two-state model as described by Shih et al[48]. After fitting, the curves were normalized by the following equation. y=-m^∘-An-T∗mn/Ad-An+md-mnT-1 where y is the ratio of native and unfolded state, An and Ad are the initial values of the Gibbs–Helmholtz equation belong to the native and denatured state, mn and md are the slopes belong to the An and Ad values, m° is the measured CD value in millidegree and T is the temperature in °C.

[2] = CD spectroscopy, helical content; type: physicochemical
Protocol: as §1, with “°C. […]” for “°C.”

[3] = analytical gel filtration; type: physicochemical
Protocol: (§2) For analytical gel filtration a Superose 6 Increase 10/300 (Cytiva) was used with an effective resolution between 5–5000 kDa range and a void volume above 5000 kDa. The column was equilibrated in DPBS supplemented with 200 μM TCEP. The calibration curve was fitted on the chromatogram of gel filtration standard mix (BioRad) with the addition of Dextran Blue to determine the void volume. 100 μl of LCA5 purified protein or LCA5-LC8 complex was injected at the concentration of 30 μM for LCA5 and 150 μM for LC8, with a flow rate of 500 μl/min immediately or after 60 min of incubation at 37 °C. For densitometric analysis, fractions were collected and 200 μl of samples were precipitated in 1.8 ml 96% ethanol at − 80 °C for 2 h. The samples were centrifugated for 30 min at 14,000 g, and dissolved in 15 μl of SDS sample buffer. 10 μl of each sample was run on Tricine-SDS gel. The calibration of the densitometry was performed on samples of known molar ratio of sLCA5 construct and LC8 (see the original gel used for calibration on Suplementary Fig. S16). Data evaluation was performed by using Origin 8 software and Fiji ImageJ software.

[4] = negative staining transmission electron microscopy of sLCA5-LC8 complexes; type: physicochemical
Protocol: For TEM negative staining experiments, a JEOL JEM-1011 (JEOL Ltd., Tokyo, Japan) electron microscope was used. The purified LCA5-LC8 complexes or LC8 or LCA5 forms alone were put together by using LCA5-WT or the single or double mutants at 30 μM and LC8 at 150 μM concentration in a buffer of 20 mM Tris 70 mM NaCl, pH 7.4, and incubated at 37 °C for 1 h. The complexes were diluted to a final 0.2 mg/ml concentration in the buffer and applied to 300 mesh formvar/carbon-coated copper grids (SPI Inc., USA). After 2 min of incubation the surplus was removed by filter paper and 1% uranyl acetate was applied for 1 min as negative staining. Images were taken around the middle of the grid at 5000, 50,000, 150,000 and 300,000-fold magnification. The collected data was analyzed by Fiji ImageJ software, and the statistical analysis was carried out in Origin 8 software.

LC8 [5] = target: T1, LC8; test: composition of complexes of LC8 binding partners (Supplementary Table S1); conditions: this paper's constructs
Excerpt: Number of LC8 Number of Ratio of LCA5
LC8 binding monomeric binding monomeric LC8 in monomers to LC8
Gene name sites partners in complex complex monomers
Supplementary Table S1. Stoichiometries of various LC8 binding partners in complex with LC8. Known LC8 binding partners according to literature data always form dimers upon LC8 binding. The stoichiometry is basically 1:1 in case of one LC8 binding site,where 2 monomeric partners are dimerized by binding one dimeric LC8. This ratio could increase up to 1:11 in case of ASCIZ where the dimeric ASCIZ possibly could bind 11 LC8 dimers in […]
occupied. According to our ITC and CD spectroscopy data, we proposed a very different binding model where the LCA5 forms likely […] alone and LC8 could interconnect this dimerized, moreover the possible binding sites are not fully occupied. […]
and 1:1 ratio case of single mutant LCA5 construct where one binding site presented and in case of wild type LCA5 where 2 binding sites presented, respectively.

LC8 [6] = target: T1, LC8; test: SDS-PAGE densitometric analysis of gel filtration fractions (sLCA5:LC8 molar ratio); type: binding; conditions: SDS-PAGE densitometry; result in words
Protocol: as §2

Molecule	− TΔS (LC8 [1]; ITC, MBP-fused sLCA5 titrated with LC8) [kcal/mol]	interaction with LC8 (GST pull-down) (GST-fused LC8)	melting temperature Tm (CD thermal denaturation)	increase in melting temperature on LC8 binding (CD thermal denaturation)	molar ellipticity curve upon addition of LC8 ([2]; 20 °C, LC8 in fivefold molar excess, vs sLCA5-WT without LC8, result in words)	helical structures preserved at higher temperatures ([2]; CD, BeStSel, 20 vs 40 °C, in the presence of LC8, LC8 and MBP-tag subtracted) [%]	estimated molar mass (gel filtration) ([3]; Superose 6 Increase 10/300, DPBS, 200 μM TCEP, void volume above 5000 kDa, listed as wild-type LCA5 construct)	void fraction (higher order oligomers) ([3]; gel filtration void volume, result in words)	increase of the difference between incubated wild type and sLCA5-ΔCQS complexes ([3]; void fraction, prolonged incubation with LC8)	stronger propensity to form higher order oligomers vs sLCA5-ΔCQS ([3]; void volume fraction size, with LC8 in fivefold molar excess)	void fraction increment on incubation ([3]; with LC8, 60 min at 37 °C vs non-incubated complex) [%]	measured diameter median of spherical complexes ([4]; 30 μM sLCA5 + 150 μM LC8, 37 °C 1 h, 20 mM Tris 70 mM NaCl pH 7.4)	increase in size of complexes vs sLCA5-ΔCQS complexes ([4]; TEM diameters with LC8, significant by two sample t-test, p = 0.05) [%]	LC8 binding sites (LC8 [5])	measurable interaction with LC8 (ITC) (LC8 [1]; titrated with LC8, result in words)	LC8 content of fraction (LC8 [6])
B1	3.28	can bind LC8	41,1 °C	~ 5 °C	remained the same	80	~ 610 kDa	remarkable increase in the void volume fraction	~ 3.5 fold	~ 20%	324	~ 39 nm	20	2	–	–
B2	–	abolished the interaction with LC8	40,7 °C	no similar increase was observed	–	–	–	–	–	–	–	–	–	–	did not show any measurable interaction	unable to bind LC8
